Experimental data published in patent US20150368338A1 (Janssen / Centocor, published 2015).
Values belong to the binder of their own block, whether it stands above or below them.

Tests used:
IFN-α1 = target: T1, IFN-α1 (human, UniProt A0A087WWS6 25-190); assay: ProteOn
T1 construct: also called Ala114 IFN-αD

IFN-αG [1] = target: T2, IFN-αG (human, UniProt P01569 24-189); assay: ProteOn
T2 construct: also called IFN-α5

IFN-αH2 [2] = target: T3, IFN-αH2 (human, UniProt P01570 24-189); assay: ProteOn
T3 construct: also called IFN-α14

IFN-αJ1 [3] = target: T4, IFN-αJ1 (human, UniProt P01567 24-189); assay: ProteOn
T4 construct: also called IFN-α7

IFN-αK [4] = target: T5, IFN-αK (human, UniProt P05013 24-189); assay: ProteOn
T5 construct: also called IFN-α6

IFN-αWA [5] = target: T6, IFN-αWA (human, UniProt P05015 24-189); assay: ProteOn
T6 construct: also called IFN-α16

IFN-α4a [6] = target: T7, IFN-α4a (human, UniProt P05014 24-189); assay: ProteOn
T7 construct: also called IFN-αM1

IFN-β = IFN-β (human, UniProt P01574 22-187); assay: ProteOn
Chimp IFN-ω = target: T8, Chimp IFN-ω (chimpanzee, UniProt P05000 24-195 (human entry)); assay: ProteOn
T8 construct: also called chimpanzee IFN-ω

Cyno IFN-ω = target: T9, Cyno IFN-ω (cynomolgus, UniProt P05000 24-195 (human entry)); assay: ProteOn
T9 construct: also called cynomolgus IFN-ω
T9 chain: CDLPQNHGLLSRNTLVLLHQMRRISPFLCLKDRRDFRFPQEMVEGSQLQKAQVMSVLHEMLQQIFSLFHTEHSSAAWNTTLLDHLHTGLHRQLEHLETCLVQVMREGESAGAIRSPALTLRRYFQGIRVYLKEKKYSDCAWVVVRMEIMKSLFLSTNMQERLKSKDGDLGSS

IFN-αC [7] = target: T10, IFN-αC (human, UniProt P01566 24-189); assay: ProteOn
T10 construct: also called IFN-α10

IFN-αD = target: T11, IFN-αD (human, UniProt A0A087WWS6 25-190); assay: ProteOn
T11 construct: also called Val114 IFN-α1
T11 chain: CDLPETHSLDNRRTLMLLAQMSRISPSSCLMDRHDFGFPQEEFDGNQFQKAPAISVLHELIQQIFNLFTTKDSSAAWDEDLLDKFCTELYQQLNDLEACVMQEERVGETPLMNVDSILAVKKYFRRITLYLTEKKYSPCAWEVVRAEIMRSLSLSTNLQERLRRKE

IFN-αF [8] = target: T12, IFN-αF (human, UniProt P01568 24-189); assay: ProteOn
T12 construct: also called IFN-α21
T12 chain: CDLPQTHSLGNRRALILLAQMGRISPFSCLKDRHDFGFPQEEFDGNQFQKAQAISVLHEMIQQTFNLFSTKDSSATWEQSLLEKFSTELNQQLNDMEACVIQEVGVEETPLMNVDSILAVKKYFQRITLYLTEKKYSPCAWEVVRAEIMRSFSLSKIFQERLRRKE

IFN-αG [9] = target: T2, IFN-αG; assay: cell-based or functional assay
IFN-αH2 [10] = target: T3, IFN-αH2; assay: cell-based or functional assay
IFN-αJ1 [11] = target: T4, IFN-αJ1; assay: cell-based or functional assay
IFN-αK [12] = target: T5, IFN-αK; assay: cell-based or functional assay
IFN-αWA [13] = target: T6, IFN-αWA; assay: cell-based or functional assay
IFN-α4a [14] = target: T7, IFN-α4a; assay: cell-based or functional assay
human IFN-ω [15] = target: T13, human IFN-ω (human, UniProt P05000 24-195); assay: cell-based or functional assay
IFN-αC [16] = target: T10, IFN-αC; assay: cell-based or functional assay
IFN-αF [17] = target: T12, IFN-αF; assay: cell-based or functional assay
human IFN-ω [18] = target: human IFN-ω (human, UniProt P05000 24-195); assay: cell-based or functional assay; remark: listed apart in the source
[19] = target: T14, Human IFN-ω T80E variant with a C-terminal 6xHis-Tag (human, UniProt P05000 24-195); assay: complex purified by size exclusion and crystallized, X-ray structure
[20] = target: T14, Human IFN-ω T80E variant with a …; assay: complex purified by size exclusion and crystallized
IFN-αG [21] = target: T2, IFN-αG; assay: cell-based or functional assay; remark: listed apart in the source
IFN-αH2 [22] = target: T3, IFN-αH2; assay: cell-based or functional assay; remark: listed apart in the source
IFN-αJ1 [23] = target: T4, IFN-αJ1; assay: cell-based or functional assay; remark: listed apart in the source
IFN-αK [24] = target: T5, IFN-αK; assay: cell-based or functional assay; remark: listed apart in the source
IFN-αWA [25] = target: T6, IFN-αWA; assay: cell-based or functional assay; remark: listed apart in the source
IFN-α4a [26] = target: T7, IFN-α4a; assay: cell-based or functional assay; remark: listed apart in the source
human IFN-ω [27] = target: T13, human IFN-ω; assay: cell-based or functional assay; remark: listed apart in the source
IFN-αC [28] = target: T10, IFN-αC; assay: cell-based or functional assay; remark: listed apart in the source
IFN-αF [29] = target: T12, IFN-αF; assay: cell-based or functional assay
IFN-αI = IFN-αI (human, UniProt P01571 24-189); assay: cell-based or functional assay
[30] = target: T14, Human IFN-ω T80E variant with a …; assay: complex crystallized, X-ray structure

B1: IFWM371 (antibody, IgG1, V domains shown)
VH: EVQLVQSGAEVKKPGESLKISCKGSGYSFTSYWIGWVRQMPGKGLEWMGIIDPSDSDTRYSPSFQGQVTISADKSISTAYLQWSSLKASDTAMYYCARHPGLNWAPDFDYWGQGTLVTVSS
VL: not shown
notes: Fab cloned into IgG1/kappa background; also called IFWB351; parental mAb
- binding result (IFN-α1): no binding
- Kd (IFN-αG [1]): 1110 pM
- Kd (IFN-αH2 [2]): 179 pM
- Kd (IFN-αJ1 [3]): 10800 pM
- Kd (IFN-αK [4]): 245 pM
- Kd (IFN-αWA [5]): 3180 pM
- Kd (IFN-α4a [6]): 5390 pM
- binding result (IFN-β): no binding
- Kd (Chimp IFN-ω): 1080 pM
- Kd (Cyno IFN-ω): 887 pM
- Kd (IFN-αC [7]): 1670 pM
- binding result (IFN-αD): no binding
- Kd (IFN-αF [8]): 5310 pM
- IC50 (nM), ISRE reporter gene assay (IFN-αG [9]): 12.9 nM
- IC50 (nM), ISRE reporter gene assay (IFN-αH2 [10]): 9.6 nM
- IC50 (nM), ISRE reporter gene assay (IFN-αJ1 [11]): 35.7 nM
- IC50 (nM), ISRE reporter gene assay (IFN-αK [12]): 7.3 nM
- IC50 (nM), ISRE reporter gene assay (IFN-αWA [13]): 74.2 nM
- IC50 (nM), ISRE reporter gene assay (IFN-α4a [14]): 32.8 nM
- IC50 (nM), ISRE reporter gene assay (human IFN-ω [15]): 43.9 nM
- IC50 (nM), ISRE reporter gene assay (IFN-αC [16]): 53.9 nM
- IC50 (nM), ISRE reporter gene assay (IFN-αF [17]): 16 nM

B2: IFWM3460 (antibody, V domains shown)
VH: EVQLVQSGAEVKKPGESLKISCKGSGYSFTSYWIGWVRQMPGKGLEWMGIIDPSDSDTRYSPSFQGQVTISADKSISTAYLQWSSLKASDTAMYYCARHPGLNWAPDFDYWGQGTLVTVSS
VL: DIQMTQSPSSLSASVGDRVTITCRASQSIDGFLNWYQQKPGKAPKLLIYVASSLQSGVPSRFSGSGSGTDFTLTISSLQPEDFATYYCQQSYDLPITFGQGTKVEIK
- IC50 (pM), ISRE reporter gene assay (human IFN-ω [18]): 43.5 pM

B3: Fab of IFWM3525 (Fab, V domains shown)
VH: EVQLVQSGAEVKKPGESLKISCKGSGYSFTSYWIGWVRQMPGKGLEWMGIIDPSDSDTRYSPSFQGQVTISADKSISTAYLQWSSLKASDTAMYYCARHPGLNWAPDFDYWGQGTLVTVSS
VL: DIQMTQSPSSLSASVGDRVTITCRASQSIDNSYLNWYQQKPGKAPKLLIYGASSLQSGVPSRFSGSGSGTDFTLTISSLQPEDFATYYCQQGYDFPLTFGQGTKVEIK
notes: Fab for crystallography with C-terminal 6xHis tag; also called Fab IFWM3525
- binding result [19]: binds

B4: Fab IFWM371 (His-tagged, IgG1/kappa isotype) (Fab, V domains shown)
VH: EVQLVQSGAEVKKPGESLKISCKGSGYSFTSYWIGWVRQMPGKGLEWMGIIDPSDSDTRYSPSFQGQVTISADKSISTAYLQWSSLKASDTAMYYCARHPGLNWAPDFDYWGQGTLVTVSS
VL: not shown
notes: His-tagged Fab expressed in HEK293 cells for crystallography; C-terminal 6xHis tag; also called FabM371; Fab of IFWM371
- binding result [20]: binds

The remaining lines, values ahead:

- IC50, ISRE reporter gene assay (IFN-αG [21]): 19 pM
- IC50, ISRE reporter gene assay (IFN-αH2 [22]): 15 pM
- IC50, ISRE reporter gene assay (IFN-αJ1 [23]): 84 pM
- IC50, ISRE reporter gene assay (IFN-αK [24]): 7 pM
- IC50, ISRE reporter gene assay (IFN-αWA [25]): 66 pM
- IC50, ISRE reporter gene assay (IFN-α4a [26]): 42 pM
- IC50, ISRE reporter gene assay (human IFN-ω [27]): 19 pM
- IC50, ISRE reporter gene assay (IFN-αC [28]): 34 pM
- IC50, ISRE reporter gene assay (IFN-αF [29]): 82 pM
- IC50, ISRE reporter gene assay (IFN-αI): 240 pM
B5: IFWM3525 (antibody, IgG1, V domains shown)
VH: EVQLVQSGAEVKKPGESLKISCKGSGYSFTSYWIGWVRQMPGKGLEWMGIIDPSDSDTRYSPSFQGQVTISADKSISTAYLQWSSLKASDTAMYYCARHPGLNWAPDFDYWGQGTLVTVSS
VL: DIQMTQSPSSLSASVGDRVTITCRASQSIDNSYLNWYQQKPGKAPKLLIYGASSLQSGVPSRFSGSGSGTDFTLTISSLQPEDFATYYCQQGYDFPLTFGQGTKVEIK

- IC50, ISRE reporter gene assay (IFN-αG [21]): 57 pM
- IC50, ISRE reporter gene assay (IFN-αH2 [22]): 34 pM
- IC50, ISRE reporter gene assay (IFN-αJ1 [23]): 134 pM
- IC50, ISRE reporter gene assay (IFN-αK [24]): 29 pM
- IC50, ISRE reporter gene assay (IFN-αWA [25]): 185 pM
- IC50, ISRE reporter gene assay (IFN-α4a [26]): 163 pM
- IC50, ISRE reporter gene assay (human IFN-ω [27]): 53 pM
- IC50, ISRE reporter gene assay (IFN-αC [28]): 77 pM
- IC50, ISRE reporter gene assay (IFN-αF [29]): 225 pM
- IC50, ISRE reporter gene assay (IFN-αI): 124 pM
B6: IFWM3522 (antibody, IgG1, V domains shown)
VH: EVQLVQSGAEVKKPGESLKISCKGSGYSFTSYWIGWVRQMPGKGLEWMGIIDPSDSDTRYSPSFQGQVTISADKSISTAYLQWSSLKASDTAMYYCARHPGLNWAPDFDYWGQGTLVTVSS
VL: DIQMTQSPSSLSASVGDRVTITCRASQSIEGALNWYQQKPGKAPKLLIYFASSLQSGVPSRFSGSGSGTDFTLTISSLQPEDFATYYCQQAYDFPLTFGQGTKVEIK

- binding result [30]: binds
B7: Fab IFWM3421 (Fab, V domains shown)
VH: EVQLVQSGAEVKKPGESLKISCKGSGYSFTSYWIGWVRQMPGKGLEWMGIIDPSDSDTRYSPSFQGQVTISADKSISTAYLQWSSLKASDTAMYYCARHPGLNWAPDFDYWGQGTLVTVSS
VL: DIQMTQSPSSLSASVGDRVTITCRASQSIDGFLNWYQQKPGKAPKLLIYFASSLQSGVPSRFSGSGSGTDFTLTISSLQPEDFATYYCQQSYDLPITFGQGTKVEIK
notes: also called Fab3421; FabM3421
